The values below come from patent publication US20230226096A1 (Orna Therapeutics, Inc., priority 2020, published 2023).

The data set deals with HEK293 cells. The data set is classed as cell-based, human. The note with it: luminescence from secreted Gluc in supernatant 24 hours after transfection of HEK293 cells; circular RNA encoding Gluc with the named IRES (UTR truncated to 675 nt).

B1: Avisivirus Pf-CHK1 (nucleic acid, listed as Avisivirus sp.)
DNA: CATTCCCCTTTCCCCAGCCATGGGTTAAATGGCCCCTCACCAGGTTCGGTGCTGTCTAGGCTTCCAGTAAAGAAGTCAACCGAGCATTGAACAAAACCTCAGTGGGTATGGTAGTTAACCCCGTCCACTGGACAACTTTGTCCTCTTAAAAGTGGATCAATCCACCCCAACTCCCCCCCTAGCCACCTGAGCCATGGTGGATAGCAGTGACGAAACTAGGGACCCCAATACCTCTAGTGCCAAGAGAATTCCCCCCTCGCGAGAGGTGCTCTTGGGCCCGAAAGGCTAGTTGGCAGGGTGAAGTGAAGGAAGCTGCTAGCGTGGCAACCTTAAGCGTAGCCCGAAGCTGACCTTAGAGGTTAACCCTAGTGGACCACTGGATGAAGCTGTGGAGGTGGTGGATAGGAAAGTTGGCCACTTGTGAGTAGATGCCCAGAAGGCATAAGGCTGATCTGGGGCCAGTGACTATACCGTTCCGGTAAACCTGGTATAAAAACCATGAAAGCAAGTGGGTTTAAAATTTCTTCTAATTCCTTCATTTCAGTAGTGATAACTGGCAGA
In turn, B1 showed an Expression of 1.19E+05.

B2: Antarctic penguin virus A (nucleic acid)
DNA: CTAGGAGACTACGCAGTGGGATAAGATGACTATGATGTCGTACGGGCAGAAGCCAGTACAGTCGAAGTCGAGACCGACGTCGAGGATTTGACTCTGCCTGACCTAGTGCCATC
modifications: chemistry not fully specified; the letters are possibly those of the target site
Regarding B2, the Expression is listed as 8.42E+04.

B3: Zika Virus (nucleic acid, listed as Zika virus)
DNA: AGTTGTTGATCTGTGTGAGTCAGACTGCGACAGTTCGAGTCTGAAGCGAGAGCTAACAACAGTATCAACAGGTTTAATTTGGATTTGGAAACGAGAGTTTCTGGTC
modifications: chemistry not fully specified; the letters are possibly those of the target site
The molecule B3 showed an Expression of 8.61E+04.

B4: Yokose virus (nucleic acid, listed as Yokose virus)
DNA: AGTAAATTTTGCGTGCTAGTCGCTGAGCGTCAGACCGCAAAGTGAGTTTTTAGTGATCTAAAGTGAGGAGTTATTCTTACTGTCATCAAACACTACAAATAAACACGTTGAAATTATTTCCGGAAGAACAACTGTCCGGAATCAAAGACG
B4: the Expression amounted to 8.55E+04.

B5: Hepacivirus J (nucleic acid)
DNA: GCCGCTCCCGAAAGGGAGTCCGGCGCGTCATCCCACTCCGAGGAGTGGGGTGGCGTCCCCGTGTGCCGGGGAACCATGAAGCCTAAGGGCATCCACATTTTAGAATGAACTTGAAGCTTCGTTTCGCTGGCCGGAAAGTCCTGGGTTCCCATGGCCAGGGTTCCGCAGGTGGGTAAATCCCGGTGGGGTTCCATCCAGGATATACGGCAGGCGGGCGTAGTCCGGCGGTTCGGACGACGTGTGGGTCGCCTACGGTGGATTGTTCACAGGATGGGCACTCCGGTGTGAATAGGCCCCGTCAGGGTGCGCTGACGTTAAACTCAGGCCTTGCCTGGTGTTCGGGGAGGATTGCAGGGCCACGCCGCCTCTAAGGGCCGTATGGCACAGTACTTCTTCGGGCGGGTTGTCAAGGCCCTCCAACGCGACACCAGTGCCTCGGCAGGCATGGGGCCACCCAGCTCGGCGTCCCGCACACAGACGGCGTAGGGGAAAATCAGCAATGTGACCCCGGGTGGCATTTTCCTTCTCTCTACTTCCATGCATGATCAACCGCAATC
modifications: Hepacivirus J
The molecule B5 had an Expression of 7.65E+04.

B6: Bussuquara virus (nucleic acid)
DNA: AGTATTTCTTCTGCGTGAGACCATTGCGACAGTTCGTACCGGTGAGTTTTGACTTAACGCAGTGAGAAAAGTTTTCGAGGAAAGACGAGAAGCGAATTCTCTGA
modifications: chemistry not fully specified; the letters are possibly those of the target site
Molecule B6 registered an Expression of 8.20E+04.

B7: Equine hepacivirus (nucleic acid, listed as Hepacivirus sp.)
DNA: ACCTCCGTGCTATGCACGGTGCGTTGTCAGCGTTTTGCGCTTGCATGCGCTACACGCGTCGTCCAACGCGGAGGGATTCTTCCACATTACCATGTGTCACTCCCCCTATGGAGGGTTCCACCCCGCCCACACGGAAATAGGTTAACCATACCTATAGTACGGGTGAGCGGGTCCTCCTAGGGCCCCCCCGGCAGGTCGAGGGAGCTGAAATTCGTGAATCCGTGAGTACACGGAAATCGCGGCTTGAACGTCATACGTGACCTTCGGAGCCGAAATTTGGGCGTGCCCCACGAAGGAAGGCGGGGGCGGTGTTGGGCCGCCGCCCCCTTTATCCCACGGTCTGATAGGATGCTTGCGAGGGCACCTGCCGGTCTCGTAGACCATAGGAC
For B7, the Expression is reported as 8.40E+04.

B8: Rosavirus 2 GA7403 (nucleic acid, listed as Rosavirus sp.)
DNA: CCAGGCATGGCGTTAAACATGCATTCCCTTCCCCTAGTAACCTCCCTTCGCCCCTTCCCCACGTTGTACCCCCTCCGAGATGGCTGCTAAGGCGCTTGCTGCTACAGCAGTCTCGTGTTTCGGGTGTTATAAGTGCTTTCTTTTCCACTCCACTCCCTGCCTATGGGGAGCGGAACGGCCTTGTCTCGGTCGTTGCTTCTTGCAGATCTTCACCCCTCCAGGCTTTCTGGACTCGCCAGGGGTGGAGTAGTAGGCGCACTGTCTAAGTGAAGGTAGCAGTGTTGTTGGCGAAGAGTTGTGGACCTACTTTGAGTTTGTAGCGATCATCCAGAGCTAGCGGATCTCCCCACGCGGTAACGCGTGCCTCTAGGCCCAAAAGGCACGGTGTTCACAGCACCCTTTGGATGGCGGGGGTGCCCCCCTCCGCACTTAAAGTAGAAAAACAGCTTAGTAGTCAAATAACATGGCTTTCCTCAAGCATTCAGTGCTACATGGGACTGAAGGATGCCCAGAAGGTACCCGCAGGCAACGATAAGCTCACTGTGGATCTGATCTGGGGCCCTGGGCCAGGTGCTATACACCTGGTTAAAACCAAATCTGGTAGTCAGGGTTAAAAAACGTCTAAGTCCCACCCCCCCGGGGACGGGGGGTTCCCTTAAACCCTCAACTGACACC
Consider B8, for which the Expression turned out to be 5.05E+06.

B9: Culex theileri flavivirus (nucleic acid, listed as Flavivirus sp.)
DNA: ATATAAATCCCAGTTTGGTTAAACCTATTTCAAGGCTTAAGTTGTTTATTATTTTATCGCCGCTCGTGACTATAAAGTTGCCTAGCGGAGAGAGATAAAGAAGAAGGAGTTCAAGGCTCAGGGCAGGGCGCAAGTTCCCTGGTCCCTAGGCCGCTCGCAGGAAGGAGGAGTGAAGAAGAAGAAAGAGAAGGAGAGGACCACCGCCGAAAGAAGGCAGGTGCCTCACAAGAGGGCCAACCAGCGTGTTGGACCAGTGGCCAACGCCGGACGGCGTGGTGGCCTGCTGGGACGCCTGGGGATTGGATGGAGTGCCTTCCTACAGGAAGACATCGTTCAAGCCATC
As for B9, the Expression is given as 8.52E+04.

B10: Hepacivirus I (nucleic acid)
DNA: CAGGGTTTCGACCCTGGCCCGGATACCTATCGCCTTACGCCGAAAGGTAACGAGTAGGAGTCGGGTCCCCAGGCCCTTACCGCCACCAAGCCAGGTGGGGAGGTATGGGAGCCGGGGGGTGCAGCTGGTAGCTCCATGGGGGACGCCCCGTGAGCGGATGCTGCATCGATACCGGGTTAGCTCTCTGGGAGAGCGGCACTTGACACCACGAATCCGGGAACCGGACAATCGCCGGCGTGGGACGCGTTGCCTCCGTGGCCGAGCAATTTGGCATGCCCGTGGTGAAGAGTGATGGTGGGGGGGGGCCCCCCTTCCAGTACCGTACTGCCTGATAGGGTCTTGCCTCAAGCCCAGAGAGTCGAGGCTGAAAACCGCCATC
modifications: Hepacivirus I
Molecule B10 registered an Expression of 7.50E+04.

B11: Equine Pegivirus 1 (nucleic acid, listed as Pegivirus sp.)
DNA: AGAATGGGGAGTTAACTCCTGGCACTGGCCCGAAGCATGAACTGATCGCGGTGGCAGGGTTCTTCGGGTAAATCCCGGCCGCGTGTTGTGATTGTGTTAGGGCAGGTGACAGTCGGCAGGGTCGACCCCCTGCTTCAGGACCACTGTCTTCCTGGACGACCGTTGCTGAAAAAGGGCCGCCACGGTCTGTAGCTCGCCGACGCTTCTAATTCAGGCCGGAGGACCACGCTCCGTAATCGAGCCCAAGTACTCAAACCCCAGCACCCCTGGGTCACGCCCTACGCCGCCCTTTTAACGCTTCGGCTAATAGGGTCTATCCGGCGGGTTGACAAAGGGCGCAGGGTTACCTGGTACTACGAGCTTGGGTGTCCCTGGGAGTAATCCCAGGGTGCC
Molecule B11 registered an Expression of 8.80E+04.

B12: Hepacivirus B (nucleic acid)
DNA: ACCACAAACACTCCAGTTTGTTACACTCCGCTAGGAATGCTCCTGGAGCACCCCCCCTAGCAGGGCGTGGGGGATTTCCCCTGCCCGTCTGCAGAAGGGTGGAGCCAACCACCTTAGTATGTAGGCGGCGGGACTCATGACGCTCGCGTGATGACAAGCGCCAAGCTTGACTTGGATGGCCCTGATGGGCGTTCATGGGTTCGGTGGTGGTGGCGCTTTAGGCAGCCTCCACGCCCACCACCTCCCAGATAGAGCGGCGGCACTGTAGGGAAGACCGGGGACCGGTCACTACCAAGGACGCAGACCTCTTTTTGAGTATCACGCCTCCGGAAGTAGTTGGGCAAGCCCACCTATATGTGTTGGGATGGTTGGGGTTAGCCATCCATACCGTACTGCCTGATAGGGTCCTTGCGAGGGGATCTGGGAGTCTCGTAGACCGTAGCAC
modifications: Hepacivirus B
B12: the Expression was 8.84E+04.

B13: Icavirus (nucleic acid)
DNA: CGAAGTTTAAGCTAAGCACCCTCGGGCGTTCCCGGATTATGTGATCACATCAATTTGATGGCTGGTCACCACGCAACGCCTGGAGAGATACTCTTACTTTTCTCTTAAGATCCCCGGTCATTTGACGCTTGTAGGATGATAGGGTTATTTTCCACTATAAATACTTTCATACTCTTGGATGTTCTATATCCAAGACGGGAGGACCTACCCCGTACCCCTTAGAGGTGAGATGCCAAGAACAGGCCCTTTCTGTTCTCTCGACAATGGCATCATAGGCAACAAGCATCACACCAAGATTGCTAAGTTTTGTTAAGAGTTCTTCAAGCTATAGGGTGGCTGTAGCGACCTTCTGATGCCTGCGGATTTCCCCACGGAGCGATCCGTGCCACAGGGGCCAAAAGCCACGGCTAACGCCCATCAGGAGCGGCACTTACCCCGTGCCCCACCCTTGAAACTTGAATGTTCACACTGGCTTCTCTCGGCTTTCTGAACTGTCTGCTTGTTGGGGCCCCGAAGGATGCCCTGGAGGTACCCCATTTTATGGGATCTGACCAGGGGACACCTCAGCTCTCTAAGTTGCTGGTGTTTAAAAAACGTCTAAGGGCCCCCACCCCTTAGGTGGAGGGATCCACCTTTCCTTTATTTTTTAAAACTCTTTTATGGTCACAATTGTTT
Take B13: the Expression is recorded as 4.41E+06.
